Source: publication PMC2911679 (Biochemical Journal, 2010)

B1: His6-tagged GFP–SRY-HMG F67V (SRY residues 55–141) (domain or fragment)
chain: not shown
B2: His6-tagged GFP–SRY-HMG, wild type (SRY residues 55–141) (domain or fragment)
chain: not shown
B3: His6-tagged GFP–SRY-HMG M64T (SRY residues 55–141) (domain or fragment)
chain: not shown
B4: His6-tagged GFP–SRY-HMG Y127C (SRY residues 55–141) (domain or fragment)
chain: not shown
B5: His6-tagged GFP–SRY-HMG R76P (SRY residues 55–141) (domain or fragment)
chain: not shown

These binders were tested against biotinylated Impβ1 (GST-fusion protein, biotinylated with sulfo-NHS-biotin) (UniProt P70168 1-876, biotin (sulfo-NHS-biotin reagent; sites not stated)) (assay: AlphaScreen or HTRF).
Chain of biotinylated Impβ1 (GST-fusion protein, biotinylated with sulfo-NHS-biotin) (P70168 whole entry, the tested form may be a part): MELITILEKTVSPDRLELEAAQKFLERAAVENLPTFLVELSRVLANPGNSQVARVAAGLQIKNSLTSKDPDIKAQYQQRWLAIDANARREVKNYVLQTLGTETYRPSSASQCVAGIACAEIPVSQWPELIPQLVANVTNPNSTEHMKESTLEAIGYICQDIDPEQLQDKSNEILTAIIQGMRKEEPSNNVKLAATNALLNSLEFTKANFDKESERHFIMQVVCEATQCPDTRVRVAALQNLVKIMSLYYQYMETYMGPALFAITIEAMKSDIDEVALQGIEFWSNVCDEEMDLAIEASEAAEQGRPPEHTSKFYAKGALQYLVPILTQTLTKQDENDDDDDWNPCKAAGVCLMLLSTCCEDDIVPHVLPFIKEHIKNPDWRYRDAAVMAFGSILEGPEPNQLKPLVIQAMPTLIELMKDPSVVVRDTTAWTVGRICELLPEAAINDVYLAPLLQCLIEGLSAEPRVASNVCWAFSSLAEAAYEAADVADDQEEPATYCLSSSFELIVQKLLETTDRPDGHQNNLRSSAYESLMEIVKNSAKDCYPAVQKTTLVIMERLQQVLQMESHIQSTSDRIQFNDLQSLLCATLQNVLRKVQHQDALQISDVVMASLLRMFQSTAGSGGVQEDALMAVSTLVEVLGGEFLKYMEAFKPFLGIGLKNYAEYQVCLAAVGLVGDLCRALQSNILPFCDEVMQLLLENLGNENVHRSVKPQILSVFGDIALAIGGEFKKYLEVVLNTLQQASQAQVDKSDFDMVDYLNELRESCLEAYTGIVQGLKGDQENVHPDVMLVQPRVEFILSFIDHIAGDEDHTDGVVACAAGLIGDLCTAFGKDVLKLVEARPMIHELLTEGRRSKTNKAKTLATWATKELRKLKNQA

| Kd | Binder |
| --- | --- |
| 1.09 nM | B1 |
| 0.94 nM | B2 |
| 1.42 nM | B3 |
| 3.6 nM | B4 |
| 0.89 nM | B5 |

What follows are binders tested against biotin-labelled calmodulin (CaM) (UniProt P0DP23 1-149, biotin (site not stated)) (assay: AlphaScreen or HTRF).

| Kd | Binder |
| --- | --- |
| 0.43 nM | B2 |
| 0.62 nM | B4 |
